Reference: the supplement of paper PMC9170038

Test system: MS2 coat protein
Assay: apparent KD of MS2 coat protein; designed switch direction (-1 OFF switch, 1 ON switch): -1; higher = weaker reporter binding
Procedure, shortened: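 SNAP-549-labelled MS2 coat protein was titrated, doubling from 0.7 or 1.5 nM to 3 µM, over designed RNA switches transcribed on Illumina chips by stalled E. coli RNA polymerase. Runs were done without input, with 200 uM small-molecule ligand, or with an oligonucleotide input. Apparent KD is the per-design median over clusters of curve-fitted normalised fluorescence.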

[1] = input ligand: microRNA oligo, concentration not stated
[2] = Eterna round: R95, input ligand: FMN 200 uM
[3] = Eterna round: R95, input ligand: microRNA oligo, concentration not stated
[4] = Eterna round: R95, input ligand: none

Sequence | apparent KD of MS2 coat protein (input ligand: FMN 200 uM) [nM] | apparent KD of MS2 coat protein (input ligand: none) [nM] | apparent KD of MS2 coat protein [1] [nM] | apparent KD of MS2 coat protein [2] [nM] | apparent KD of MS2 coat protein [3] [nM] | apparent KD of MS2 coat protein [4] [nM]
AUGGAGGCAGGAUAUGAGCGUACGAACAUGAGGAUCACCCAUGUGAGAUCUCCUGGUAGCUCAGAAGGGCUAUCUC [Eternabot (Original) Solution 5] (Eterna round: R97, puzzle: Exclusion 5) | 253 | 67.4 | – | – | – | –
AGAGACCGAGGAUAUCCCAGAACUCACAUGAGGAUCACCCAUGUGUAGAUUGGGUGUCACGGAGAAGGCGGAUCGC [EX5 C.21] (Eterna round: R97, puzzle: Exclusion 5) | 14 | 13.8 | – | – | – | –
AAGUUACAUGAGGAUCACCCAUGUGAGGAUAUGAGUCAGUCACGGUGACGUGGCUGACUCAGAAGGCACAAUGG [JL-ex1-4.41 salish99 mod] (Eterna round: R97, puzzle: Exclusion 1) | 43 | 290 | – | – | – | –
UAGGAGAGAGUGAGGAUAUCCGGAAGAGAGGAUCAGGAGAAGGCACAUGAGGAUCACCCAUGUAAAAGAGGGAA [I think I solved risk of not working] (Eterna round: R97, puzzle: Brourd's mod of Exclusion 4) | 63.5 | 51.9 | – | – | – | –
ACUUAUAGAGGAUAUACAGAAUAUUACAUGAGGAUCACCCAUGUUCUUCAAUGUAUAUAAGUAGAAGGCUAAGGUU [Mat - Exclusion 5 - JL Mod - D5] (Eterna round: R97, puzzle: Exclusion 5) | 282 | 33.4 | – | – | – | –
UGCCUAUGAGGAUAUACAUUGAAUAAGAUUCAUGUAAAACUACAUGAGGAUCACCCAUGUAGAAGGCAUGGGCU [Mat - Exclusion 2 - JL Mod - D70] (Eterna round: R97, puzzle: Exclusion 2) | 29 | 19.1 | – | – | – | –
GUGUGACAUGAGGAUCACCCAUGUGAGGAUAUCAUGCUUCGUAGUAAACUACGAAGUGUGAGAAGGCACAUAAC [Omei Ex1 E8] (Eterna round: R97, puzzle: Exclusion 1) | 678 | 122 | – | – | – | –
CAGUACUGAGGAUAUACAUGAGGAUCACCCAUGUGGUCCAGCUAGGAAACUAGCACGUGUAGAAGGCAGUACUG [Ex3: 840] (Eterna round: R96, puzzle: Exclusion 3) | 58.3 | 45.7 | 55.3 | – | – | –
UCAAACAUCGUUAGGAUAUGCUGGACUAAAUAGUGGCAGAAGGAACAUGAGGAUCACCCAUGUGCCUCGAUUGC [Eternabot (L2) Solution 26] (Eterna round: R97, puzzle: Brourd's mod of Exclusion 4) | 17.4 | 13.4 | – | – | – | –
AAGUACCGUCACGAAAGUGAUGGUACAGCAAGUAAAUGUACAUGAGGAUCACCCAUGUCCUCAAUUGCUCGUCUUAU [Sensor 3 - 59] (puzzle: Sensor v3, turn-off variant 2) | – | – | – | 185 | 173 | 212
CUCCGGCGUGUAGGAUAUGGAUCCGAUUAGGAUCCAGAAGGACAUGAGGAUCACCCAUGUACAUGUAGACGGUCGUCACCGGGC [salish99_ExNG1_r04_208] (Eterna round: R96, puzzle: Exclusion NG 1) | 195 | 42.1 | 32 | – | – | –
AAAUGUUCGGAGGAUAUAGAACGAUUGUCCGAGCUAGAAGGCCGAACAUGAGGAUCACCCAUGUGUACCUUAAA [Tibiares] (puzzle: Exclusion 6) | – | – | – | 306 | 40.1 | 53.7
UAAGGGUGCGUAGGAUAUCGCGGCCGAAUAAAGCGAGAAGGACGCCCGAAUGGGUCGUCCAACAUGAGGAUCACCCAUGUAAAC [Soerre] (Eterna round: R96, puzzle: Exclusion NG 1) | 140 | 50.2 | 36.5 | – | – | –
GUGGUACAUGAGGAUCACCCAUGUGAGGAUAUAGUCGGCUGGUGGUCGCGGGUGGUGGCUAGAAGGUGCGUGCG [-19.3, -16.9 kcal, A 18%] (Eterna round: R97, puzzle: Exclusion 1) | 171 | 179 | – | – | – | –
CUUUUGUGAGGAUAUCAGUAGUAAAUAAAUAAAAUUAUUACUGAGAAGGCACAUGAGGAUCACCCAUGUUCCUC [salish99_ex3_r3_086] (puzzle: Exclusion 4) | – | – | – | – | 36.9 | –
UUGCAGUCGUCAGGAUAUAGUAUUACGGCCUUUUAUUUUUUCAUACAUGAGGAUCACCCAUGUCGCUAGAAGGGAUUAUCGAUU [salish99_ExNG2_r04_104] (Eterna round: R96, puzzle: Exclusion NG 2) | 39.6 | 41.4 | 31.6 | – | – | –
AGAGAAUACUCAGGAUAUCUUAAUAGAAAGAAUAGAGAAGGGAGACAUGAGGAUCACCCAUGUGAAGUCUUGAGACUACAUGGU [Prohibition 29 - Jieux - Exclusion NG 1] (Eterna round: R96, puzzle: Exclusion NG 1) | – | – | 218 | – | – | –

Sequence | apparent KD of MS2 coat protein (input ligand: FMN 200 uM) [nM] | apparent KD of MS2 coat protein (input ligand: none) [nM] | apparent KD of MS2 coat protein [1] [nM] | apparent KD of MS2 coat protein [2] [nM] | apparent KD of MS2 coat protein [3] [nM] | apparent KD of MS2 coat protein [4] [nM]
GGUUAUUGCAAGGAUAUGCUAUUAUUUUAUUUUGCAGAAGGUGCAACAUGAGGAUCACCCAUGUUGGAGGGUUU [JR_E6_Sub024] (puzzle: Exclusion 6) | – | – | – | – | 17.9 | –
CGUUCGCGAGGAUAUGCAUUCGAGUCCACUACGUGUCUGGGACUUGAGGAUCACCCAAGUAGAAGGCGCCUCCC [salish99_ex2_r4_649] (Eterna round: R97, puzzle: Exclusion 2) | 71.3 | 47.9 | – | – | – | –
UCAUGUCCUGAGGAUAUGUAGCGGAUAAACGCAACAGAAGGCAGGACAUGAGGAUCACCCAUGUGUGCCUUCCA [Exclusion 6 Mod of JL of Mod of Letion by ViennaUCT] (Eterna round: R97, puzzle: Exclusion 6) | 8.14 | 113 | – | – | – | –
AAAAGGUCAGGAUAUGCUUGGCGGAUUCUGGUAUCCAAAUGACAUGAGGAUCACCCAUGUAGAAGGGACAUCAG [Maanlesoge] (Eterna round: R97, puzzle: Exclusion 2) | 21.8 | 20.6 | – | – | – | –
GACAGGCAGGCAGGAUAUGCCCGUGUGGAUGGUGUAGAAGGGCUAGCGGGUCACUUGAGGAUCACCCAAGUGGAGGGUGGCCUA [Mutated MS2 EX1.28] (Eterna round: R96, puzzle: Exclusion NG 1) | 51.3 | 38.2 | 31.2 | – | – | –
GUAGAGUGAGGAUAUACGAGAUCGAAAGAUCAACGAUCCAAACAUGAGGAUCACCCAUGUAGAAGGCACUCUAC [Eli x2 4.008] (Eterna round: R97, puzzle: Exclusion 2) | 270 | 27.1 | – | – | – | –
CGGUGCUGAGGAUAUACAUGAGGAUCACCCAUGUGUUCCAGCUAGGUGACUGGCAAAUGUAGAAGGCGGUACUG [JL-ex3-3.36 Brourd mod] (puzzle: Exclusion 3) | – | – | – | 40.7 | 77.7 | 105
AGCUGUGGCCGAGGAUAUCUAAAACCUCAAAACGAAAUAUAAUCGAACAUGAGGAUCACCCAUGUAGAGAAGGCGGUCUCAGCA [Eli eng2 - 031] (Eterna round: R96, puzzle: Exclusion NG 2) | – | – | 214 | – | – | –
AUCAGCUCGUGAGGAUAUACAUGAGGAUCACCCAUGUGAUCAAUAGCAGCUUCGGCUGCAUUAAUGUAGAAGGCACGAGCUGAU [ENG2/5-A3] (Eterna round: R96, puzzle: Exclusion NG 2) | 77.9 | 214 | 22.2 | – | – | –
UACAUGAGGAUCACCCAUGUUUUGUCGUGUAUGGUAUUUAUCUAGGAUAUCAUUUUAUUUAUUUAUGAGAAGGAGAAUAUUAAU [JMF's solution 6] (Eterna round: R96, puzzle: Exclusion NG 3) | 49.4 | 37.2 | 27 | – | – | –
GUUGUGUAAGGAUAUGCCUGGCCGUGAGGCCAGAUUGAGUGGCAGAAGGUACAUGAGGAUCACCCAUGUACGGG [salish99_ex4_4_003] (Eterna round: R97, puzzle: Exclusion 4) | 145 | 26.8 | – | – | – | –
AUACACUAACGAGGAUAUUGGAAAGGAAGUGUACAAGAAGGCGUCCGUGGAAGGGUGAAACAUGAGGAUCACCCAUGUGAAUAA [Exclusion NG 1] (Eterna round: R96, puzzle: Exclusion NG 1) | 519 | 648 | 254 | – | – | –
AGUAGUUGUUUCCGUUCUUACAUGAGGAUCACCCAUGUUUCUUGUCGUGCUCGCGAUGCUCGUCAGACUACCAGAUG [salish99_TOv1_r3_059] (Eterna round: R96, puzzle: Sensor v3, turn-off variant 1) | 63 | 59.1 | 40.6 | – | – | –
AGUGUCAAGCAAGCAAGGAACAUGAGGAUCACCCAUGUCGUACAAUAAACGCCCGCUCGUCGCACGUCGUGCGUAGA [Eternabot (Original) Solution 18] (Eterna round: R97, puzzle: Sensor, turn-off variant 1) | 34.3 | 27.2 | – | – | – | –
GCUUGGCGAGGAUAUACAUGAGGAUCACCCAUGUGAGAGAAUAAAGUGAGGAAGAAAAGUAGAAGGCGCUGAGG [Mat - Exclusion 3 - Mod of Salish D58] (puzzle: Exclusion 3) | – | – | – | 199 | 40.4 | 40.4
UAUUAGCAAGCAAGAUCCUACAUGAGGAUCACCCAUGUGCUCGUCUUAAACGCAGAAUUACUGCGAGCUCGUCUUAU [Winner reversed engineered 25] (Eterna round: R97, puzzle: Sensor, turn-off variant 1) | 579 | 849 | – | – | – | –
